Assays:
[1] = target: c-Src SH2; assay: SH2 binding enrichment of the phosphorylated peptide, bacterial display (enrichment ratio); higher = better substrate or ligand; peptides without Tyr show the background
[2] = target: Grb2 SH2 (UniProt P62993); assay: as above
[3] = target: SHP2-C SH2; assay: as above
[4] = target: EPHB2 (UniProt P29323); assay: phosphorylation enrichment, bacterial display (enrichment ratio); higher = better substrate or ligand; peptides without Tyr show the background
[5] = target: Hck (UniProt P08631); assay: as above
[6] = tested on: c-Src; assay: as above
[7] = tested on: Fer (mouse); assay: as above
[8] = tested on: c-Abl (mouse); assay: as above
[9] = target: FGFR1 (UniProt P11362); assay: as above
[10] = target: FGFR3 (UniProt P22607); assay: as above
[11] = target: Fyn (UniProt P06241); assay: as above
[12] = target: Fes (UniProt P07332); assay: as above
[13] = tested on: AncSZ; assay: as above
[14] = target: EPHB1 (UniProt P54762); assay: as above
[15] = target: Jak2 (UniProt O60674); assay: as above
[16] = target: MERTK (UniProt Q12866); assay: as above
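For SH2 binding enrichment of the phosphorylated peptide, bacterial display in this document: peptide library displayed on the E. coli surface as eCPX fusions, selected cells deep-sequenced, score is each peptide's frequency after selection divided by its frequency in the input.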
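For phosphorylation enrichment, bacterial display in this document: 11-residue human phosphosite peptides and single-mutation variants displayed on the E. coli surface, counted by deep sequencing, each peptide's frequency after selection divided by its frequency in the unselected input library; frequency after pTyr selection over input frequency; kinase dosed for 20-30% of maximal phosphorylation in three min.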

Sequence of Jak2 (O60674 whole entry, looked up): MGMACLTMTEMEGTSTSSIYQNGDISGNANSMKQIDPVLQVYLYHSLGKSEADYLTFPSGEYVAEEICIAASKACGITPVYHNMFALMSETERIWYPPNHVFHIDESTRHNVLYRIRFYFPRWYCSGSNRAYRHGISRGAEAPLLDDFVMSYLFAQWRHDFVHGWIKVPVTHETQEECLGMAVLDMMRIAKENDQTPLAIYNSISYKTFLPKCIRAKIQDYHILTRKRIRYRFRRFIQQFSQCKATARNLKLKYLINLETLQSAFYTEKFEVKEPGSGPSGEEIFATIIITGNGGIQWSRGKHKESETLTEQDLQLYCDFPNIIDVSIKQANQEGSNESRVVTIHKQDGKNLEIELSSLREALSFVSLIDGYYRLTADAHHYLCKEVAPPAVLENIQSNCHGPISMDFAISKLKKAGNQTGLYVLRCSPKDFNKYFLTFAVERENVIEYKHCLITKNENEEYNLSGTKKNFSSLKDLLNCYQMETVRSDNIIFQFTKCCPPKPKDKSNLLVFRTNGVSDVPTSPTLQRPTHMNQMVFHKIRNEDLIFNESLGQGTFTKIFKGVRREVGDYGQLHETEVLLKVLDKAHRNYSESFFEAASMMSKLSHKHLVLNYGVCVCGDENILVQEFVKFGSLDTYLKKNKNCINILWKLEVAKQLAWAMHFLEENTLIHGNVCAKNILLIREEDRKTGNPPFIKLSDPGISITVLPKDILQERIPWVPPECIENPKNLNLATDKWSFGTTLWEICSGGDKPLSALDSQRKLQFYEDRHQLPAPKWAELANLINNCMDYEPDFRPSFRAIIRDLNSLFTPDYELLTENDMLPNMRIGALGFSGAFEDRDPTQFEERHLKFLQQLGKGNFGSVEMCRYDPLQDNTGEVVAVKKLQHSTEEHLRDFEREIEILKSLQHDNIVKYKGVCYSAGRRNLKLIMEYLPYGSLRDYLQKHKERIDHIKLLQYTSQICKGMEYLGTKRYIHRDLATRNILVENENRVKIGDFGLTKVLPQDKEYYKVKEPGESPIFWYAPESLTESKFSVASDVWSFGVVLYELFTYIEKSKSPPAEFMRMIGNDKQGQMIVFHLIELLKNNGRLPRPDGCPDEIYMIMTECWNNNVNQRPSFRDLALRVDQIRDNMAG
Sequence of Fyn (P06241 whole entry, looked up): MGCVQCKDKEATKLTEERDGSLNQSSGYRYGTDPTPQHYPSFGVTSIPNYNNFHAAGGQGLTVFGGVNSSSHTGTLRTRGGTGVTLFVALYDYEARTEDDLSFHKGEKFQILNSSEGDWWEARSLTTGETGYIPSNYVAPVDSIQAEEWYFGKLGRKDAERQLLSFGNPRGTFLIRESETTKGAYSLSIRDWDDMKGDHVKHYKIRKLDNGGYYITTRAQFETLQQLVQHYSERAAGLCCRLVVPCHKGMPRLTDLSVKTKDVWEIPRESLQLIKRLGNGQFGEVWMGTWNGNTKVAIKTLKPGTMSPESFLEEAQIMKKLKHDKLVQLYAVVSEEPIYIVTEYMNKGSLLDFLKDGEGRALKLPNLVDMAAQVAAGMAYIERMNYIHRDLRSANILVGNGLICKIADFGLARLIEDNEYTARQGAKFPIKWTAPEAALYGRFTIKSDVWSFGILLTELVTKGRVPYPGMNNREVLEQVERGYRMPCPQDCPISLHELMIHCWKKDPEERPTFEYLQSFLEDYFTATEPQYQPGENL
Sequence of Hck (P08631 whole entry, looked up): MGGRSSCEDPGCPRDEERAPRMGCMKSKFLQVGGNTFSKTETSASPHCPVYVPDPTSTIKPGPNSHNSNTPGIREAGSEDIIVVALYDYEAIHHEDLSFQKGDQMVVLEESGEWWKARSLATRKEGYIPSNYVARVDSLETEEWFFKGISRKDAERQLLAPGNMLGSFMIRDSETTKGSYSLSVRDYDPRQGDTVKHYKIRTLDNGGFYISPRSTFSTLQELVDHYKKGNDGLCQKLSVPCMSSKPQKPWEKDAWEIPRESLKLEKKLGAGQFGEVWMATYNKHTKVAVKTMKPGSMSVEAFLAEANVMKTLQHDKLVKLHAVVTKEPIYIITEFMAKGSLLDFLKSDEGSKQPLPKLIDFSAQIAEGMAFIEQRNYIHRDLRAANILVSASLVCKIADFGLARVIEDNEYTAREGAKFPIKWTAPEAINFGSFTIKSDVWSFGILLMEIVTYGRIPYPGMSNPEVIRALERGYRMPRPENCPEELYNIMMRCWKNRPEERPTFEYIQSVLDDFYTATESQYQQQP
Sequence of MERTK (Q12866 whole entry, looked up, the tested form may be a part): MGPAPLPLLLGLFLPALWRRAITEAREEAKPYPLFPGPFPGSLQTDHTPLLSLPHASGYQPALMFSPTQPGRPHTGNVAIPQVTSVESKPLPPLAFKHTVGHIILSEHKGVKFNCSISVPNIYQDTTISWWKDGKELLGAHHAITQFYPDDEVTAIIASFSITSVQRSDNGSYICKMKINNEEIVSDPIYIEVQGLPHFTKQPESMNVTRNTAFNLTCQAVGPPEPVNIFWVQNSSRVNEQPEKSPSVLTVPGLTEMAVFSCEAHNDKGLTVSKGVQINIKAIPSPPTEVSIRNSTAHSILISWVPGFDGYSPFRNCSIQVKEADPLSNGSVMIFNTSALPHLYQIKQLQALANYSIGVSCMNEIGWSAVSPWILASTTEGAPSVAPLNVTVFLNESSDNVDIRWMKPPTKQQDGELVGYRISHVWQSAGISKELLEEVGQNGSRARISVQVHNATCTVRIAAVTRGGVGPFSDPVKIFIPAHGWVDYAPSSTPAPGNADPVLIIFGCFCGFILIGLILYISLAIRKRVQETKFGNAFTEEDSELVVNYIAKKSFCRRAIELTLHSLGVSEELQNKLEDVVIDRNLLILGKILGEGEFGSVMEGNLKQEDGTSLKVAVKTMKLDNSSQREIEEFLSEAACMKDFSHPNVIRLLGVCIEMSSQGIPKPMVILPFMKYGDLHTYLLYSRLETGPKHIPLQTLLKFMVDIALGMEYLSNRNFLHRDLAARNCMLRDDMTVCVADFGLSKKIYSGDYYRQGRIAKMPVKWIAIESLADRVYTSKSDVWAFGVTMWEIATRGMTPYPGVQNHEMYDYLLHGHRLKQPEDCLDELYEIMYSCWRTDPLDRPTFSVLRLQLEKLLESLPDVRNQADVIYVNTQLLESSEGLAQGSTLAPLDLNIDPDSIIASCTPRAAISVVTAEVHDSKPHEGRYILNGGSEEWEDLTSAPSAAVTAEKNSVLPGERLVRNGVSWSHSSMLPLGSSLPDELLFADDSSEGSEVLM
Sequence of FGFR1 (P11362 whole entry, looked up): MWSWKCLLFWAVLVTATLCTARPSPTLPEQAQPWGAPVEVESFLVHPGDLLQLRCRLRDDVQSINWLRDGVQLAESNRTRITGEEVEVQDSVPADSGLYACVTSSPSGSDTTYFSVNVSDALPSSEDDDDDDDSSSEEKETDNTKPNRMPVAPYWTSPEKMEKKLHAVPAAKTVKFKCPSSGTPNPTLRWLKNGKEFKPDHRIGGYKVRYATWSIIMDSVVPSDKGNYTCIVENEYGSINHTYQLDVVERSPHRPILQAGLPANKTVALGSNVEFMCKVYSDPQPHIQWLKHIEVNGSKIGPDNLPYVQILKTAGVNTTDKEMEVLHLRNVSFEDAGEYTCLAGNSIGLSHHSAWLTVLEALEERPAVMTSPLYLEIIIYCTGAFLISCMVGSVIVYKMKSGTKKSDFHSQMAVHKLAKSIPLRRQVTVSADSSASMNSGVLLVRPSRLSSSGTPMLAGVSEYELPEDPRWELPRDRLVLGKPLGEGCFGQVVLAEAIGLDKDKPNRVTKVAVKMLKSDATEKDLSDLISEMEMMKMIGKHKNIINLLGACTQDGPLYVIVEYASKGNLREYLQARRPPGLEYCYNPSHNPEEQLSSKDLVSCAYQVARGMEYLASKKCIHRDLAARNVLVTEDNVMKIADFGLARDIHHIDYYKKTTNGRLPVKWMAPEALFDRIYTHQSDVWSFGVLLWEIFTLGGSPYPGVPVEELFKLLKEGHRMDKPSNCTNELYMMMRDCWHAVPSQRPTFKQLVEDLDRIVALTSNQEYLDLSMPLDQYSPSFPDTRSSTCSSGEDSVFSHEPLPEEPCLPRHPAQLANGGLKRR
Sequence of EPHB1 (P54762 whole entry, looked up): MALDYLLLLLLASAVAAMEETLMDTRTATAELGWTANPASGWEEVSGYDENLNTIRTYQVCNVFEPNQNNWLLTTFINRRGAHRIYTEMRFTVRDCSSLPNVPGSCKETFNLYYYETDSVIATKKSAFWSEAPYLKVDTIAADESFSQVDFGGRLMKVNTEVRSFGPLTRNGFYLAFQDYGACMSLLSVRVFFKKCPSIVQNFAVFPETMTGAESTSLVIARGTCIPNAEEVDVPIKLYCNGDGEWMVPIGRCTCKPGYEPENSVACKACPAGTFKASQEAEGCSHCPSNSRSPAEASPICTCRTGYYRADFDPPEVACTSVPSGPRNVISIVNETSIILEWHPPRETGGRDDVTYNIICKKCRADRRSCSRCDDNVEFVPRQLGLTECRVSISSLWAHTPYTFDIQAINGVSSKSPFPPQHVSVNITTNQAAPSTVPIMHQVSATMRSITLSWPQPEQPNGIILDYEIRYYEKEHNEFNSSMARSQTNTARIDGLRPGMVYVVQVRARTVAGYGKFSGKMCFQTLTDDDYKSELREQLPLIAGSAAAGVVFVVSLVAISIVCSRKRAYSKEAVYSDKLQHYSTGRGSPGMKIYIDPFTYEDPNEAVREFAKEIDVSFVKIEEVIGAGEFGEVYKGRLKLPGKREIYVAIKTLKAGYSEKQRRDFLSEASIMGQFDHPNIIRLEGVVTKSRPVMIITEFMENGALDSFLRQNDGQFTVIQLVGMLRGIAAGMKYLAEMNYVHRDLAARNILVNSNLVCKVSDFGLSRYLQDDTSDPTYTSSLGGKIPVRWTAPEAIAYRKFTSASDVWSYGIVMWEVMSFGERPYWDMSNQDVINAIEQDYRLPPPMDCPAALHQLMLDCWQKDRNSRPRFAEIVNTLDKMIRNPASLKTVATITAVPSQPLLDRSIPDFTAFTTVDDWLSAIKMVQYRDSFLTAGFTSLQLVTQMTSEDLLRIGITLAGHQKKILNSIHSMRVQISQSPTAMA

Sequence | SH2 binding enrichment [1] | SH2 binding enrichment [2] | SH2 binding enrichment [3] | phosphorylation enrichment [4] | phosphorylation enrichment [5] | phosphorylation enrichment [6] | phosphorylation enrichment [7] | phosphorylation enrichment [8] | phosphorylation enrichment [9] | phosphorylation enrichment [10] | phosphorylation enrichment [11] | phosphorylation enrichment [12] | phosphorylation enrichment [13] | phosphorylation enrichment [14] | phosphorylation enrichment [15] | phosphorylation enrichment [16]
AVRVFYRKCPH [EPHB2_Y194_R199H] | 0.509 | 0.646 | 0.497 | 0.711 | 0.604 | 0.424 | 0.452 | 1.14 | 0.563 | 0.668 | 0.496 | 1.08 | 1.22 | 0.588 | 0.804 | 0.485
WVFNHYRWFIW [BRCA2_Y2624_I2627F_YF] | 0.587 | 0.941 | 0.693 | 0.636 | 0.482 | 0.409 | 0.575 | 0.898 | 0.49 | 0.813 | 0.462 | 1.32 | 1.13 | 0.654 | 1.25 | 0.463
SDVSSYLEGQA [GCG_Y110] | 0.41 | 0.727 | 0.738 | 0.76 | 0.488 | 0.474 | 0.775 | 0.678 | 0.456 | 0.657 | 0.447 | 0.938 | 0.867 | 0.469 | 0.769 | 0.432
FKDGQYWIRGR [ACSF3_Y466] | 0.46 | 0.825 | 0.359 | 0.369 | 0.614 | 0.501 | 0.387 | 0.491 | 0.361 | 0.482 | 0.448 | 0.862 | 0.78 | 0.317 | 0.671 | 0.379
LHAALYKRKLL [TTLL5_Y542_E543K] | 0.517 | 0.858 | 2.26 | 0.527 | 0.536 | 0.551 | 0.41 | 1.24 | 0.483 | 0.518 | 0.464 | 0.702 | 0.771 | 0.454 | 1.17 | 0.502
RSFSPCDFQPC [TNS1_Y796_Y796C_YF] | 0.693 | 0.945 | 0.602 | 0.991 | 0.786 | 0.583 | 0.584 | 0.427 | 0.672 | 0.822 | 0.783 | 0.972 | 0.83 | 0.54 | 0.705 | 0.643
PVRIAYGRPRG [SUGP2_Y985_D986G] | 0.364 | 0.837 | 0.506 | 0.493 | 1.25 | 0.816 | 0.61 | 0.5 | 0.449 | 0.64 | 0.639 | 0.523 | 1.01 | 0.643 | 1.18 | 0.606
CTTNHYNFMCN [TP53_Y234_I232N_YF] | 3.79 | 0.962 | 1.12 | 0.544 | 0.424 | 0.497 | 0.486 | 0.489 | 0.626 | 0.556 | 0.463 | 0.67 | 0.811 | 0.436 | 0.511 | 0.437
HSFQCYGQNEA [ENTPD3_Y262_R264Q] | 0.596 | 0.968 | 0.62 | 0.452 | 0.701 | 0.441 | 0.382 | 0.793 | 0.604 | 0.71 | 0.535 | 1 | 0.996 | 0.551 | 1.21 | 0.422
NDTAGYFVIGG [SEL1L3_Y399_I401V] | 7.22 | 0.664 | 0.784 | 0.642 | 0.75 | 0.727 | 0.581 | 0.781 | 2.16 | 1.64 | 0.848 | 1.1 | 1.17 | 0.669 | 6.88 | 0.872
PRAEWYRDDVL [MYOM2_Y317] | 0.585 | 0.802 | 0.637 | 0.725 | 0.586 | 0.546 | 0.767 | 0.879 | 0.507 | 0.818 | 0.572 | 1.46 | 1.31 | 0.959 | 1.11 | 0.681
GTTIHYNYMCN [TP53_Y234_C229G] | 1.56 | 0.716 | 0.73 | 0.704 | 0.673 | 0.529 | 0.656 | 0.814 | 0.619 | 0.973 | 0.614 | 1.37 | 1.12 | 0.834 | 1.22 | 0.585
ETKKQYDSFTY [TMED3_Y85] | 1 | 0.772 | 0.714 | 0.493 | 0.54 | 0.604 | 0.542 | 0.639 | 0.5 | 0.581 | 0.531 | 0.828 | 0.735 | 0.397 | 0.656 | 0.524
PVKDGYQMAQP [CSF1R_Y873_L868P] | 0.527 | 0.838 | 0.673 | 0.474 | 0.833 | 0.574 | 0.591 | 0.278 | 1.05 | 0.694 | 0.433 | 1.11 | 0.682 | 0.451 | 0.521 | 0.393
AGADGYDYLAP [FOXL2_Y186_G187D] | 4.34 | 0.89 | 0.478 | 0.587 | 0.903 | 0.388 | 0.62 | 0.655 | 0.611 | 0.783 | 0.534 | 0.99 | 3.5 | 0.585 | 0.997 | 0.647
PLDGEYSTLQI [TP53_Y327_F328S] | 0.433 | 0.399 | 0.272 | 1.17 | 3.08 | 2.97 | 3.56 | 1.33 | 1.77 | 1.18 | 2.2 | 1.53 | 2.13 | 1.27 | 1.33 | 0.75
WNGDKYAATTT [TRIM39_Y439] | 0.481 | 0.994 | 0.61 | 0.592 | 0.52 | 0.421 | 0.446 | 0.513 | 0.654 | 0.679 | 0.48 | 0.731 | 0.717 | 0.462 | 0.729 | 0.381

Sequence | SH2 binding enrichment [1] | SH2 binding enrichment [2] | SH2 binding enrichment [3] | phosphorylation enrichment [4] | phosphorylation enrichment [5] | phosphorylation enrichment [6] | phosphorylation enrichment [7] | phosphorylation enrichment [8] | phosphorylation enrichment [9] | phosphorylation enrichment [10] | phosphorylation enrichment [11] | phosphorylation enrichment [12] | phosphorylation enrichment [13] | phosphorylation enrichment [14] | phosphorylation enrichment [15] | phosphorylation enrichment [16]
FAKTQYPDVFA [CRX_Y63_YF] | 0.486 | 0.803 | 0.544 | 0.45 | 0.483 | 0.351 | 0.388 | 0.478 | 0.454 | 0.525 | 0.364 | 0.74 | 0.876 | 0.469 | 0.724 | 0.38
VRRVGYVSGWG [HP_Y280_G276R] | 0.494 | 0.95 | 0.579 | 0.423 | 0.438 | 0.434 | 0.469 | 0.642 | 0.373 | 0.391 | 0.388 | 0.61 | 0.613 | 0.422 | 0.514 | 0.387
LHVKMYNFLRS [ADGRG7_Y760_R756H] | 0.827 | 1.28 | 1.07 | 0.778 | 0.625 | 0.711 | 1.11 | 2.26 | 0.714 | 0.94 | 0.615 | 1.89 | 1.97 | 0.831 | 1.69 | 0.85
RPSELYYSKIS [SMG1_Y2253_G2258S] | 5.74 | 1.06 | 2.51 | 1.31 | 11.1 | 2.96 | 2.25 | 0.926 | 5.05 | 3.5 | 1.4 | 1.02 | 1.79 | 2.17 | 1.05 | 14.6
TNYPLYLRSLE [MTM1_Y71_R69P] | 0.433 | 0.96 | 0.862 | 0.727 | 0.654 | 0.499 | 0.555 | 0.668 | 0.671 | 0.987 | 0.603 | 1.36 | 1.18 | 1.01 | 1.28 | 0.551
NYADPYRQLQY [CTNND2_Y503] | 1.5 | 0.892 | 1.12 | 10.8 | 0.615 | 0.551 | 0.464 | 0.687 | 3.72 | 1.99 | 0.43 | 0.747 | 0.776 | 9.61 | 0.672 | 2.57
IRYPPYTDWNQ [ALDH3B2_Y365_H361R] | 0.767 | 0.76 | 0.76 | 0.494 | 0.464 | 0.418 | 0.567 | 0.487 | 0.628 | 0.612 | 0.468 | 0.826 | 0.781 | 0.428 | 0.675 | 0.429
FLRTGYSVPFG [TGM1_Y370_YF] | 5.53 | 0.885 | 1.62 | 0.515 | 0.461 | 0.53 | 0.466 | 0.945 | 0.504 | 0.632 | 0.729 | 0.955 | 0.875 | 0.523 | 0.929 | 0.561
HNGVSYFINLC [IGF2R_Y2024_YF] | 0.439 | 0.755 | 0.573 | 0.822 | 0.618 | 0.668 | 0.587 | 1.24 | 0.783 | 0.997 | 0.659 | 2.08 | 1.57 | 1.17 | 2.2 | 0.613
MNPPPYSQLLS [FGF23_Y154_F157L] | 1.34 | 0.776 | 0.656 | 0.606 | 0.568 | 0.644 | 0.483 | 0.489 | 0.527 | 0.71 | 0.522 | 0.623 | 0.692 | 0.639 | 0.523 | 0.451
DAANNYARGHY [TUBA3E_Y103_S101N] | 0.509 | 0.85 | 0.558 | 0.37 | 0.436 | 0.442 | 0.355 | 0.559 | 0.469 | 0.45 | 0.421 | 0.575 | 0.691 | 0.412 | 0.546 | 0.528
QGQHWYSSSDT [CASP10_Y9_K14T] | 1.53 | 0.827 | 0.83 | 0.929 | 0.573 | 0.982 | 0.755 | 1.06 | 0.657 | 0.901 | 0.672 | 1.39 | 1.09 | 0.859 | 1.99 | 0.811
RGYRVCYTPDS [PTPRF_Y450_Y450C] | 0.41 | 0.534 | 0.687 | 0.909 | 0.618 | 0.985 | 0.71 | 1.16 | 0.784 | 1.36 | 0.602 | 1.61 | 1.32 | 0.892 | 1.86 | 0.634
IGMSSYVMLAS [GGCX_Y301_F299S] | 1.43 | 0.771 | 1.79 | 0.655 | 0.452 | 0.546 | 0.522 | 0.875 | 1.88 | 1.36 | 0.496 | 1.2 | 1.34 | 0.853 | 1.66 | 0.878
LVRPPYSYLAL [FOXI1_Y126_S129L] | 3.64 | 1.06 | 3.61 | 0.536 | 0.678 | 0.498 | 1.23 | 0.757 | 1.62 | 1.33 | 0.438 | 0.645 | 0.602 | 0.63 | 2.16 | 2.78
RELGEYALAEY [ALDH1A3_Y492] | 1.18 | 0.707 | 0.691 | 0.785 | 0.765 | 1.14 | 0.74 | 1.67 | 0.694 | 0.714 | 0.614 | 2.76 | 1.44 | 0.858 | 1.81 | 0.55
